# B1: TriFu_no_linker (triple fusion complement inhibitor without polyglycine linker between DAF and FH) (other)
# chain: DCGLPPDVPNAQPALEGRTSFPEDTVITYKCEESFVKIPGEKDSVICLKGSQWSDIEEFCNRSCEVPTRLNSASLKQPYITQNYFPVGTVVEYECRPGYRREPSLSPKLTCLQNLKWSTAVEFCKKKSCPNPGEIRNGQIDVPGGILFGATISFSCNTGYKLFGSTSSFCLISGSSVQWSDPLPECREIYCPAPPQIDNGIIQGERDHYGYRQSVTYACNKGFTMIGEHSIYCTVNNDEGEWSGPPPECRGGKCGPPPPIDNGDITSFPLSVYAPASSVEYQCQNLYQLEGNKRITCRNGQWSEPPKCLHPCVISREIMENYNIALRWTAKQKLYSRTGESVEFVCKRGYRLSSRSHTLRTTCWDGKLEYPTCAKRGHCQAPDHFLFAKLKTQTNASDFPIGTSLKYECRPEYYGRPFSITCLDNLVWSSPKDVCKRKSCKTPPDPVNGMVHVITDIQVGSRINYSCTTGHRLIGHSSAECILSGNTAHWSTKPPICQRIPCGLPPTIANGDFISTNRENFHYGSVVTYRCNLGSRGRKVFELVGEPSIYCTSNDDQVGIWSGPAPQCII
# Molecular target: C3b
# Assay: SPR
binder,measurement,value
B1,Kd,98 nM

# — paper PMC11065761 (The Journal of Biological Chemistry, 2024)
